Test [1] deals with wild-type form of serine acetyltransferase. As to conditions: 0.1 mM acetyl-coenzyme A and 1 mM L-serine; competitive; read-out: inhibitor constant Ki; cited from earlier work.
Test [2] concerns the target T1, serine acetyltransferase of cysteine-prototrophic revertant (Escherichia coli, UniProt P0A9D4, M256I).
T1 construct: host or cells: cysteine-prototrophic revertant of a cysteine-auxotrophic strain mutagenized with ethyl methanesulfonate (Denk and Bock 1987)
To be noted: versus wild-type; cited from earlier work.

Test [3] has as its target T1, serine acetyltransferase of cysteine-prototrophic revertant. Nature of the test: Literature: end product inhibition of serine acetyltransferase from a cysteine-prototrophic revertant. The test is classed as biochemical. The procedure: According to the literature reference mentioned, the feedback resistance of this mutant is elevated 10-fold. Consequently, the Ki of this mutant is approx. 0.01 mM, when comparison is made with the wild-type form.

The next test deals with JM15attλ::cysE strains. Nature of the test: Cysteine production in 1 L fermenter, chromosomally encoded cysE alleles. It counts as cell-based, E. coli. To be noted: single chromosomal copy. The procedure:
For the purpose of being integrated into the chromosomal attachment site (attλ), the cysE alleles cysEIV, cysEX and cysEXI were cloned into the plasmid pRS551 (Simons et al., 1987, Gene 53: 85-96). For this, each cysE allele was amplified by PCR from the corresponding cysE plasmid. The oligonucleotides which were used, i.e. cysE-fwl and cysE-revl, are described in Example 1. The amplification was carried out as described in Example 3. The resulting fragments were cleaved with EcoRI/BamHI, purified through an agarose gel and ligated into vector pRS551 which had been cleaved with EcoRI and BamHI. This afforded the vector pRS551-based recombinant plasmids pRScysEIV, X and XI.
A heterogeneous lambda lysate, which contained recombinant cysE allele-carrying λRS45 derivatives in addition to λRS45 phages, was produced in vivo by homologous recombination by means of preparing a plate lysate on a pRScysE-carrying recA^+ strain (e.g. YMC9, ATCC 3397) using the λRS45 phage (Simons et al., 1987, Gene 53: 85-96).
The cysE strain JM15, which was infected with the heterogeneous lambda lysate and subsequently plated on kanamycin-containing (25 mg/L) LB plates, was used for selecting for the recombinant RS45 derivatives. The lysogenic, kanamycin-resistant clones which were obtained were then tested for their ability to grow on minimal medium plates without cysteine. A clone which was in each case cysteine-prototrophic was selected and used for preparing a homogeneous cysE λ lysate (by means of UV induction, Simons et al., 1987, Gene 53: 85-96).
The JM15 stain was infected with these homogeneous cysE λ lysates which were obtained in each case. The resulting JM15attλ::cysE strains were cultured as described in Example 6. Instead of tetracycline, the respective media in each case contained 25 mg of kanamycin per L as the selection agent.

The target in another test is serine acetyltransferase. Nature of the test: Serine acetyltransferase enzyme activity test with and without L-cysteine (inhibitor constant Ki, specific activity). As to conditions: for Ki: inhibitor L-cysteine. The test is classed as biochemical, E. coli. An excerpt:
Any method which enables the activity of the serine acetyltransferase to be determined in the presence of cysteine can be used for determining the cysteine sensitivity of this enzyme. For example, the serine acetyltransferase activity can be determined using the method described by Kredich and Tomkins, J. Biol. Chem. 241: 4955-4965 (1966). In this test, the enzyme test mixture contains the substrate, L-serine, and the cofactor, acetyl-coenzyme A. The reaction is started by adding enzyme and monitored, in a spectro photometer, by observing the decrease in absorption at 232 nm which is elicited by the cleavage of the thioester bond in the acetyl-coenzyme A.
The above-described enzyme test is suitable for determining the cysteine sensitivity of any serine acetyltransferase enzyme, including the enzymes which have a modified carboxyl terminus. Inhibition of the serine acetyltransferase activity is tested in the presence of differing concentrations of L-cysteine in the reaction mixture. The catalytic activity of the different serine acetyltransferase enzymes is determined in the presence and absence of L-cysteine, and the inhibitor constant, Ki, is ascertained from this (Kredich and Tomkins, J. Biol. Chem., 241, 4955-4965 (1966)).
In order to investigate the biochemical basis of the cysteine secretion of the revertants, the activity of the serine acetyltransferase was determined in vitro, and the ability of cysteine to inhibit the enzyme was measured. For the determination, use was made of S30 extracts (cell homogenates centrifuged at 30,000 g and 4° C. for 20 minutes) of the selected revertants, the starting strains and the comparison strain, E. coli W3110 (ATTC 27325).
The biochemical parameters such as enzyme activity and inhibitor constant, Ki, were determined in an analogous manner to that described in Example 1.
The plasmids resulting from this cloning were designated pACYC184/cysE-Del in accordance with the extent of their deletion (cf. FIG. 9 for the plasmid map). Determination of the enzymic activity and the inhibitor constant, Ki, and also the cross-feeding test, were carried out in analogy with the description in Example 1. DNA sequence analysis was used to confirm that the deletions had been correctly introduced.
Determination of the enzymic activity and of the inhibitor constant Ki, and also the cross-feeding test, were carried out in analogy with the description in Example 1.

A further test concerns production strain JM15. Nature of the test: Cysteine production in 1 L fermenter, JM15 with plasmid-encoded cysE alleles. The test is classed as cell-based, E. coli. To be noted: 48 h, JM15 transformed with plasmid. The procedure: Influence of different, plasmid-encoded cysE alleles on the production of L-cysteine or products derived from L-cysteine in a 1 L fermenter using the host strain JM15 20 mL of LB medium (1% tryptone, 0.5% yeast extract, 0.5% NaCl) contained in a 100 mL Erlenmeyer flask were inoculated with a single colony of the production strain JM15 (CGSC#5042) which had been transformed with the respective cysE plasmid.
After having been incubated for 7 hours in a bacterial shaker (30° C., 150 rpm), the respective preliminary cultures were transferred to 100 mL of SM1 medium. The SM1 medium contained 5 g/L glucose, 5 mg/L vitamin B1, 3 g/l KH2 PO4, 12 g/L K2 HPO4, 0.3 g/L MgSO4×7 H2 O, 0.1 g/L NaCl, 5 g/L (NH4)2 SO4, 14.7 mg/L CaCl2×2 H2 O, 2 mg/L FeSO4×2 H2 O, 1 g/L Na3 citrate×2 H2 O, 1 ml/L trace element solution and 25 mg/L tetracycline. The trace element solution was composed of 0.15 g/L Na2 MoO4×2 H2 O, 2.5 g/L H3 BO3, 0.7 g/L CoCl2×6 H2 O, 0.25 g/L CuSO4×5 H2 O, 1.6 g/L MnCl2×4 H2 O and 0.3 g/L ZnSO4×7 H2 O. The cultures were shaken in 1 L Erlenmeyer flasks at 30° C. and at 150 rpm for 17 h. After this incubation, the OD600 was between 4 and 5. The subsequent fermentation was carried out in Braun-Melsungen BIOSTAT M research fermenters. A culturing vessel having a total volume of 2 L was used.
The fermentation medium contained 15 g/L glucose, 5 g/L NaCl, 0.3 g/L MgSO4×7 H2 O, 15 mg/L CaCl2×2 H2 O, 75 mg/L FeSO4×7 H2 O, 1 g/L Na3 citrate×2 H2 O, 1.5 g/L KH2 PO4, 1 mL of trace element solution (see above), 5 mg/L vitamin B1, 2.5 g/L yeast extract (Difco), 2.5 g/L tryptone (Difco) and 25 mg/L tetracycline.
The glucose concentration in the fermenter was initially adjusted to a value of 15 g/L by pumping in a 700 g/L (w/v) (sterilized) glucose solution, and the pH was adjusted to 7.0 by pumping in a 25% NH4 OH solution. After an OD600 of 10 had been reached, 300 mg per hour were supplied from a sterile 100 g/L (w/v) stock solution of thiosulfate. 100 mL of preliminary culture were pumped into the fermenter vessel for the inoculation. The starting volume was approximately 1 L. The cultures were initially stirred at 400 rpm and aerated with 1.5 vvm of compressed air which had been sterilized by passing through a sterile filter. The fermentation was carried out at a temperature of 30° C.
The pH was maintained at a value of 7.0 by means of automatic correction with 25% NH4 OH. The oxygen saturation in the fermentation broth had at no time during the fermentation to fall below 20%; the stirring speed was used to ensure this. The glucose content of the nutrient solution, the optical density and the cysteine content were determined at two- to three-hourly intervals. The glucose content was determined enzymically using a glucose analyzer from YSI. The concentration of the glucose was adjusted to between 10 and 20 g/L by means of continuously feeding in this compound.
The content of cysteine in the medium was determined […] from the cell-free super-natant of the sample using the method of Gaitonde, M. K. (1967), Biochem. J. 104, 627-633.
The fermentation was terminated after 44-50 h.

Setting [4] is: Table 1a, 1 mM L-serine, 0.1 mM acetyl-CoA.
Setting [5] is: Table 1a, serine acetyltransferase activity.
Where [6] appears, read: Table 2, alleles from chemical mutagenesis.
Where [7] appears, read: Table 4, alleles from site-specific mutagenesis.
Setting [8] is: Table 1b, carboxyterminal deletions.

Where a chain is given by its changes, count along the chain named.

T1 sequence (P0A9D4 whole entry M256I): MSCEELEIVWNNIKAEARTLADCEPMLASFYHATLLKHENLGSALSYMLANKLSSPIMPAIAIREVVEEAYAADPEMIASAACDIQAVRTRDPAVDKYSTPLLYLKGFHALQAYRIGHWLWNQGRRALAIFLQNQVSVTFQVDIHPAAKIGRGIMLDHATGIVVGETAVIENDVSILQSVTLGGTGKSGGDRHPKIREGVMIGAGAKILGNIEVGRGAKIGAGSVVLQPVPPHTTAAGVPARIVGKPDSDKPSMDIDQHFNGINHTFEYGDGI

One may read the Ki as the equilibrium dissociation constant of an inhibitor or competing ligand from its target. For `N[C@@H](CS)C(=O)O` [L-cysteine], the Ki is 1.1 µM in test [1] and roughly 10 µM in test [3]. Further, the feedback resistance elevated in test [2] is listed as 10 fold.

B1: cysEX: mutant Thr167->Ala167 (protein, UniProt P0A9D4 1-273, looked up, variant T167A)
Serine acetyltransferase: MSCEELEIVWNNIKAEARTLADCEPMLASFYHATLLKHENLGSALSYMLANKLSSPIMPAIAIREVVEEAYAADPEMIASAACDIQAVRTRDPAVDKYSTPLLYLKGFHALQAYRIGHWLWNQGRRALAIFLQNQVSVTFQVDIHPAAKIGRGIMLDHATGIVVGEAAVIENDVSILQSVTLGGTGKSGGDRHPKIREGVMIGAGAKILGNIEVGRGAKIGAGSVVLQPVPPHTTAAGVPARIVGKPDSDKPSMDMDQHFNGINHTFEYGDGI
As for B1, in the test with JM15attλ::cysE strains, the yields of cysteine stood at 1.8 g/L. Also, the Ki on serine acetyltransferase (setting [4]) and at serine acetyltransferase (setting [6]) was 50 µM each time. Moreover, the spec. act. in the test on serine acetyltransferase (setting [5]) amounted to 0.156 µmol/min/mg. In addition, the Cysteine yield in the test with production strain JM15 was 3.4 g/L.

B2: cysEVI: double mutant Ser238, Ile256 (protein, UniProt P0A9D4 1-273, looked up, variant G238S M256I)
Serine acetyltransferase: B1 Serine acetyltransferase with A167T, G238S, M256I
On to B2, for which the Ki on serine acetyltransferase (setting [4]) and at serine acetyltransferase (setting [7]) was 10 µM each time. The same molecule displayed a spec. act. in the test with serine acetyltransferase (setting [5]) of 0.075 µmol/min/mg. This molecule yielded a Cysteine yield with production strain JM15 of 1.4 g/L.

B3: cysEXXIII: triple mutant Ala167, Val237, Ser238 (protein, UniProt P0A9D4 1-273, looked up, variant T167A A237V G238S)
Serine acetyltransferase: B1 Serine acetyltransferase with A237V, G238S
Turning to B3, the Ki at serine acetyltransferase (setting [4]) and on serine acetyltransferase (setting [7]) was 2300 µM in each case. Moreover, in the test on serine acetyltransferase (setting [5]), the spec. act. was determined as 0.085 µmol/min/mg. The molecule further yielded a Cysteine yield in the test with production strain JM15 of 2.7 g/L.

B4: cysEIV: double mutant Ala237->Val237, Gly238->Ser238 (protein, UniProt P0A9D4 1-273, looked up, variant A237V G238S)
Serine acetyltransferase: B1 Serine acetyltransferase with A167T, A237V, G238S
B4: the yields of cysteine in the test with JM15attλ::cysE strains is recorded as 0.5 g/L. Further, the Ki on serine acetyltransferase (setting [4]) and at serine acetyltransferase (setting [7]) was 40 µM throughout. For the same molecule, the spec. act. with serine acetyltransferase (setting [5]) was 0.170 µmol/min/mg. For the same molecule, the Cysteine yield in the test on production strain JM15 is 1.6 g/L.

B5: cysEV: triple mutant Val237, Ser238, Ile256 (protein, UniProt P0A9D4 1-273, looked up, variant A237V G238S M256I)
Serine acetyltransferase: B1 Serine acetyltransferase with A167T, A237V, G238S, M256I
B5: the Ki on serine acetyltransferase (setting [4]) and on serine acetyltransferase (setting [7]) was 10 µM in each case. The molecule also yielded a spec. act. in the test on serine acetyltransferase (setting [5]) of 0.246 µmol/min/mg. Besides, the Cysteine yield with production strain JM15 stood at 1.3 g/L.

B6: cysEXII: triple mutant Lys97->Gln97, Gly238->Ser238, Phe267->Leu267 (protein, UniProt P0A9D4 1-273, looked up, variant K97Q G238S F267L)
Serine acetyltransferase: B1 Serine acetyltransferase with K97Q, A167T, G238S, F267L
In the case of B6, the Ki at serine acetyltransferase (setting [4]) and at serine acetyltransferase (setting [6]) was 40 µM throughout. In the test with serine acetyltransferase (setting [5]), this molecule gave a spec. act. of 0.254 µmol/min/mg. Further, in the test on production strain JM15, the Cysteine yield was 1.2 g/L.

B7: cysE-Del255: carboxyterminal deletion of 18 amino acids, terminal Asp255 (protein, UniProt P0A9D4 1-255, looked up, fragment)
chain: MSCEELEIVWNNIKAEARTLADCEPMLASFYHATLLKHENLGSALSYMLANKLSSPIMPAIAIREVVEEAYAADPEMIASAACDIQAVRTRDPAVDKYSTPLLYLKGFHALQAYRIGHWLWNQGRRALAIFLQNQVSVTFQVDIHPAAKIGRGIMLDHATGIVVGETAVIENDVSILQSVTLGGTGKSGGDRHPKIREGVMIGAGAKILGNIEVGRGAKIGAGSVVLQPVPPHTTAAGVPARIVGKPDSDKPSMD
Consider B7, for which the spec. act. in the test with serine acetyltransferase (setting [8]) is recorded as 0.624 μmol/min x mg. The Ki on serine acetyltransferase (setting [8]) is 30 µM; on serine acetyltransferase (Table 6, carboxyterminal deletions) it was 30 µM. In the test with production strain JM15, this molecule displayed a Cysteine yield of 3.9 g/L.
